How the values were obtained:
[1] = biological target: C3b (human, UniProt P01024); test: SPR
[2] = biological target: the molecule itself; test: SAXS

Sequence of C3b (P01024 23-667, chain 1 of 2): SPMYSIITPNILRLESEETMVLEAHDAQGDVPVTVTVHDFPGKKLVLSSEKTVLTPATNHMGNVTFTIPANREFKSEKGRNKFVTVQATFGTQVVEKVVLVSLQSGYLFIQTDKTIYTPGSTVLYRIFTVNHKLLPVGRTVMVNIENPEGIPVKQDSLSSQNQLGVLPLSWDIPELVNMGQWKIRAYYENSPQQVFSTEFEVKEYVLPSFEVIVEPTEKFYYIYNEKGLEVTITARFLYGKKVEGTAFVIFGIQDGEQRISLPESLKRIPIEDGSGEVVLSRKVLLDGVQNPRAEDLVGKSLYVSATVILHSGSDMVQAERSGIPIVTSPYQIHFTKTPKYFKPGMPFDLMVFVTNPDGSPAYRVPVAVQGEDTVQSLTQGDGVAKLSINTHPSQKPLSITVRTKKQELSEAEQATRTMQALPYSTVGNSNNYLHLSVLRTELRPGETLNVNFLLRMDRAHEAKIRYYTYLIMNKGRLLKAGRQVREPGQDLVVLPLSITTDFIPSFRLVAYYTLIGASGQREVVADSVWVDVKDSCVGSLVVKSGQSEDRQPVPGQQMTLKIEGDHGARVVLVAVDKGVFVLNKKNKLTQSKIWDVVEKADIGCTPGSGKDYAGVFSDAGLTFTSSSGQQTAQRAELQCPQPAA
Sequence of C3b (P01024 749-1663, chain 2 of 2): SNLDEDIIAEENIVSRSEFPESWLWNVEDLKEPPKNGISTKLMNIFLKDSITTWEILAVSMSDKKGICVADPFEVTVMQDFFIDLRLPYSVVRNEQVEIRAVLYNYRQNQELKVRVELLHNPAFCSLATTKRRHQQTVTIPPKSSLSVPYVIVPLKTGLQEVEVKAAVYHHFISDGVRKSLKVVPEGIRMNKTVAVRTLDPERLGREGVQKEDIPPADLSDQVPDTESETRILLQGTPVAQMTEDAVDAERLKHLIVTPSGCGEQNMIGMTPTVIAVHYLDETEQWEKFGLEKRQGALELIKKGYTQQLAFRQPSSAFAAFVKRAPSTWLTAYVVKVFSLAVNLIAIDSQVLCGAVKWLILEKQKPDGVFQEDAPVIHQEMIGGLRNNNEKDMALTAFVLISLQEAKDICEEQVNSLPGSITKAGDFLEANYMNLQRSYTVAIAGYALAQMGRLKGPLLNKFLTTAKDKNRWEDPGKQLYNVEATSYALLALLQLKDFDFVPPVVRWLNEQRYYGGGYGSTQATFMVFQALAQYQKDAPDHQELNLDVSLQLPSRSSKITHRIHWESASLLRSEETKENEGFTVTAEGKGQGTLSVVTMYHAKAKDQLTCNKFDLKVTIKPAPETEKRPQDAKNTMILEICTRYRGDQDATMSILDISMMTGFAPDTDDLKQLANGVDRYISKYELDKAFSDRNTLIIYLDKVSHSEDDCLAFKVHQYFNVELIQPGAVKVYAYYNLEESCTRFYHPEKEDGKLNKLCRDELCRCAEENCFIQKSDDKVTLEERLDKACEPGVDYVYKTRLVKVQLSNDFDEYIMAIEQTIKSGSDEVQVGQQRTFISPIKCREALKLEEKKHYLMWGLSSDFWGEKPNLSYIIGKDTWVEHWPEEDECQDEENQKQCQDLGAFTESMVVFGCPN

Binder | binding result [1] | stoichiometry N [2]
FH_(19-20), the C-terminal part of factor H (SCR 19-20), recombinant (domain or fragment) KDSTGKCGPPPPIDNGDITSFPLSVYAPASSVEYQCQNLYQLEGNKRITCRNGQWSEPPKCLHPCVISREIMENYNIALRWTAKQKLYSRTGESVEFVCKRGYRLSSRSHTLRTTCWDGKLEYPTCAKR | binds | –
factor H-related protein 2 (FHR-2), recombinant (natural protein) EAMFCDFPKINHGILYDEEKYKPFSQVPTGEVFYYSCEYNFVSPSKSFWTRITCAEEGWSPTPKCLRLCFFPFVENGHSESSGQTHLEGDTVQIICNTGYRLQNNENNISCVERGWSTPPKCRSTISAEKCGPPPPIDNGDITSFLLSVYAPGSSVEYQCQNLYQLEGNNQITCRNGQWSEPPKCLDPCVISQEIMEKYNIKLKWTNQQKLYSRTGDIVEFVCKSGYHPTKSHSFRAMCQNGKLVYPSCEEK | binds | –
factor H-related protein 1 (FHR-1), recombinant (natural protein) EATFCDFPKINHGILYDEEKYKPFSQVPTGEVFYYSCEYNFVSPSKSFWTRITCTEEGWSPTPKCLRLCFFPFVENGHSESSGQTHLEGDTVQIICNTGYRLQNNENNISCVERGWSTPPKCRSTDTSCVNPPTVQNAHILSRQMSKYPSGERVRYECRSPYEMFGDEEVMCLNGNWTEPPQCKDSTGKCGPPPPIDNGDITSFPLSVYAPASSVEYQCQNLYQLEGNKRITCRNGQWSEPPKCLHPCVISREIMENYNIALRWTAKQKLYLRTGESAEFVCKRGYRLSSRSHTLRTTCWDGKLEYPTCAKR | – | 2
factor H-related protein 5 (FHR-5), recombinant (natural protein) EGTLCDFPKIHHGFLYDEEDYNPFSQVPTGEVFYYSCEYNFVSPSKSFWTRITCTEEGWSPTPKCLRMCSFPFVKNGHSESSGLIHLEGDTVQIICNTGYSLQNNEKNISCVERGWSTPPICSFTKGECHVPILEANVDAQPKKESYKVGDVLKFSCRKNLIRVGSDSVQCYQFGWSPNFPTCKGQVRSCGPPPQLSNGEVKEIRKEEYGHNEVVEYDCNPNFIINGPKKIQCVDGEWTTLPTCVEQVKTCGYIPELEYGYVQPSVPPYQHGVSVEVNCRNEYAMIGNNMITCINGIWTELPMCVATHQLKRCKIAGVNIKTLLKLSGKEFNHNSRIRYRCSDIFRYRHSVCINGKWNPEVDCTEKREQFCPPPPQIPNAQNMTTTVNYQDGEKVAVLCKENYLLPEAKEIVCKDGRWQSLPRCVESTAYCGPPPSINNGDTTSFPLSVYPPGSTVTYRCQSFYKLQGSVTVTCRNKQWSEPPRCLDPCVVSEENMNKNNIQLKWRNDGKLYAKTGDAVEFQCKFPHKAMISSPPFRAICQEGKFEYPICE | binds | –
Factor H (FH), plasma purified (natural protein) EDCNELPPRRNTEILTGSWSDQTYPEGTQAIYKCRPGYRSLGNVIMVCRKGEWVALNPLRKCQKRPCGHPGDTPFGTFTLTGGNVFEYGVKAVYTCNEGYQLLGEINYRECDTDGWTNDIPICEVVKCLPVTAPENGKIVSSAMEPDREYHFGQAVRFVCNSGYKIEGDEEMHCSDDGFWSKEKPKCVEISCKSPDVINGSPISQKIIYKENERFQYKCNMGYEYSERGDAVCTESGWRPLPSCEEKSCDNPYIPNGDYSPLRIKHRTGDEITYQCRNGFYPATRGNTAKCTSTGWIPAPRCTLKPCDYPDIKHGGLYHENMRRPYFPVAVGKYYSYYCDEHFETPSGSYWDHIHCTQDGWSPAVPCLRKCYFPYLENGYNQNYGRKFVQGKSIDVACHPGYALPKAQTTVTCMENGWSPTPRCIRVKTCSKSSIDIENGFISESQYTYALKEKAKYQCKLGYVTADGETSGSITCGKDGWSAQPTCIKSCDIPVFMNARTKNDFTWFKLNDTLDYECHDGYESNTGSTTGSIVCGYNGWSDLPICYERECELPKIDVHLVPDRKKDQYKVGEVLKFSCKPGFTIVGPNSVQCYHFGLSPDLPICKEQVQSCGPPPELLNGNVKEKTKEEYGHSEVVEYYCNPRFLMKGPNKIQCVDGEWTTLPVCIVEESTCGDIPELEHGWAQLSSPPYYYGDSVEFNCSESFTMIGHRSITCIHGVWTQLPQCVAIDKLKKCKSSNLIILEEHLKNKKEFDHNSNIRYRCRGKEGWIHTVCINGRWDPEVNCSMAQIQLCPPPPQIPNSHNMTTTLNYRDGEKVSVLCQENYLIQEGEEITCKDGRWQSIPLCVEKIPCSQPPQIEHGTINSSRSSQESYAHGTKLSYTCEGGFRISEENETTCYMGKWSSPPQCEGLPCKSPPEISHGVVAHMSDSYQYGEEVTYKCFEGFGIDGPAIAKCLGEKWSHPPSCIKTDCLSLPSFENAIPMGEKKDVYKAGEQVTYTCATYYKMDGASNVTCINSRWTGRPTCRDTSCVNPPTVQNAYIVSRQMSKYPSGERVRYQCRSPYEMFGDEEVMCLNGNWTEPPQCKDSTGKCGPPPPIDNGDITSFPLSVYAPASSVEYQCQNLYQLEGNKRITCRNGQWSEPPKCLHPCVISREIMENYNIALRWTAKQKLYSRTGESVEFVCKRGYRLSSRSHTLRTTCWDGKLEYPTCAKR | binds | –

From publication doi:10.1101/413294 (bioRxiv, 2018)
